In this experiment the target is T1, LukF component of Panton-Valentine Leukocidin (LukF-PV) (Staphylococcus aureus, strain ).
T1 chain: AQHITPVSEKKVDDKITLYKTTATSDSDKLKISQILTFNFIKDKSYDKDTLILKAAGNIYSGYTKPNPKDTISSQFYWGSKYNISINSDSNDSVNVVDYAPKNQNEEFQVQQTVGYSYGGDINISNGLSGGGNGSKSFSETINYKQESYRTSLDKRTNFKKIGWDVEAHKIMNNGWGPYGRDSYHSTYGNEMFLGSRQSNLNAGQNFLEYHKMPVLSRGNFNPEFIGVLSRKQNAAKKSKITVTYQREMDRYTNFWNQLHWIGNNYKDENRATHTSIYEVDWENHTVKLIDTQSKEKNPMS
Kind of experiment: BLI. On the technique in general: In BLI a coated tip is dipped into the sample, and binding shifts an interference pattern.

B1: H5 mAb (broadly neutralizing antibody) (antibody, V domains shown)
VH: EVQLQESGPGLVRPSETLSLTCAVSGYSISSGMGWGWIRQPPGKGLEWIGSIDQRGSTYYNPSLKSRVTISVDTSKNQFSLKLSSVTAADTAVYYCARDAGHAVDMDVWGKGTTVTVSS
VL: DIQMTQSPSSVSASVGDRVTITCRASQGISRWLAWYQQKPGKAPKLLIYAASSLQSGVPSRFSGSGSGTDFTLTISSLQPEDFATYYCQQGYVFPLTFGGGTKVEIK
One may read the Kd as the free concentration of one partner at which half of the binding sites on the other are occupied at equilibrium, for simple one-to-one binding. High values mean a looser complex, low ones a tighter complex. B1 registered a Kd of 0.4 nM.

The values are drawn from paper PMC9225675 (mAbs, 2022).
